Data set [1] deals with T1, Cas12i3 S536R K583R N711R C724R (Unidentified, S536R,K583R,N711R,C724R).
T1 chain: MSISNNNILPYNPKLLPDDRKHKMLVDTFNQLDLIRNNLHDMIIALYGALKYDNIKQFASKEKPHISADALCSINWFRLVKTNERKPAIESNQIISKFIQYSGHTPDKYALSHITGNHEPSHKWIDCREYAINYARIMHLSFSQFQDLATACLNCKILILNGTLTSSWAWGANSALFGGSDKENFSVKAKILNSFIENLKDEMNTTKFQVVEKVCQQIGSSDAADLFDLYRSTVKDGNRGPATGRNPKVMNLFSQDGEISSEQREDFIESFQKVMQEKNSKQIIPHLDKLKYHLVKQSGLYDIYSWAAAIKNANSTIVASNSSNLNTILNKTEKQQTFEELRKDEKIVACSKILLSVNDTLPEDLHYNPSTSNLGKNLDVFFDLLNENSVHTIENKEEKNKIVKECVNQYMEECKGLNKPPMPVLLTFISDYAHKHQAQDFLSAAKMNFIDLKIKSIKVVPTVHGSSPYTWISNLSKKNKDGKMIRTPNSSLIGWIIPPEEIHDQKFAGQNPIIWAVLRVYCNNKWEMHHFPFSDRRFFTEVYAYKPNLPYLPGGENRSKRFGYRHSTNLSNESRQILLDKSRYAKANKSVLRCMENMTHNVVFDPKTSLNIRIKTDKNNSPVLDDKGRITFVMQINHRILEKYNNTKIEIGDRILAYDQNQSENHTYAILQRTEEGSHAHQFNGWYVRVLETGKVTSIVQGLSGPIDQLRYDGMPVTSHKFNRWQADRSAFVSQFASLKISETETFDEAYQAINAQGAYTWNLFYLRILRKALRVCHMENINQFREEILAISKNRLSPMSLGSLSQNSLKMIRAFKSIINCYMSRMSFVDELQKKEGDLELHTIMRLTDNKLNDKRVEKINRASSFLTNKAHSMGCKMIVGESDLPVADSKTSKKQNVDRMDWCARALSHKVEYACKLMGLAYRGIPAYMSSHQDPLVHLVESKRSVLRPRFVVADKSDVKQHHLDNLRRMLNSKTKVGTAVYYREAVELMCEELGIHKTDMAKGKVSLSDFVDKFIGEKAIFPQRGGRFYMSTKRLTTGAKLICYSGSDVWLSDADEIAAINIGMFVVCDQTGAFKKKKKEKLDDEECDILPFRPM
The data set can be described thus: cell_activity; fold change in % indels, HEK293T; PAM not stated in example. As to the method:
(§1) Approximately 16 hours prior to transfection, 100 μl of 25,000 HEK293T cells in DMEM/10% FBS+Pen/Strep were plated into each well of a 96-well plate. On the day of transfection, the cells were 70-90% confluent. For each well to be transfected, a mixture of 0.5 μl of Lipofectamine 2000 and 9.5 μl of Opti-MEM was prepared and then incubated at room temperature for 5-20 minutes (Solution 1). […] In the case of negative controls, the crRNA was not included in Solution 2. The solution 1 and solution 2 mixtures were mixed by pipetting up and down and then incubated at room temperature for 25 minutes. Following incubation, 20 μL of the Solution 1 and Solution 2 mixture were added dropwise to each well of a 96 well plate containing the cells. 72 hours post transfection, cells are trypsinized by adding 10 μL of TrypLE to the center of each well and incubated for approximately 5 minutes. 100 μL of D10 media was then added to each well and mixed to resuspend cells. The cells were then spun down at 500 g for 10 minutes, and the supernatant was discarded. QuickExtract buffer was added to ⅕ the amount of the original cell suspension volume. Cells were incubated at 65° C. for 15 minutes, 68° C. for 15 minutes, and 98° C. for 10 minutes.
(§2) Samples for Next Generation Sequencing were prepared by two rounds of PCR. The first round (PCR1) was used to amplify specific genomic regions depending on the target. PCR1 products were purified by column purification. Round 2 PCR (PCR2) was done to add Illumina adapters and indexes. Reactions were then pooled and purified by column purification. Sequencing runs were done with a 150 cycle NextSeq v2.5 mid or high output kit.

For data set [2], the target named is T2, Cas12i3 S559R (Unidentified, S559R).
T2 chain: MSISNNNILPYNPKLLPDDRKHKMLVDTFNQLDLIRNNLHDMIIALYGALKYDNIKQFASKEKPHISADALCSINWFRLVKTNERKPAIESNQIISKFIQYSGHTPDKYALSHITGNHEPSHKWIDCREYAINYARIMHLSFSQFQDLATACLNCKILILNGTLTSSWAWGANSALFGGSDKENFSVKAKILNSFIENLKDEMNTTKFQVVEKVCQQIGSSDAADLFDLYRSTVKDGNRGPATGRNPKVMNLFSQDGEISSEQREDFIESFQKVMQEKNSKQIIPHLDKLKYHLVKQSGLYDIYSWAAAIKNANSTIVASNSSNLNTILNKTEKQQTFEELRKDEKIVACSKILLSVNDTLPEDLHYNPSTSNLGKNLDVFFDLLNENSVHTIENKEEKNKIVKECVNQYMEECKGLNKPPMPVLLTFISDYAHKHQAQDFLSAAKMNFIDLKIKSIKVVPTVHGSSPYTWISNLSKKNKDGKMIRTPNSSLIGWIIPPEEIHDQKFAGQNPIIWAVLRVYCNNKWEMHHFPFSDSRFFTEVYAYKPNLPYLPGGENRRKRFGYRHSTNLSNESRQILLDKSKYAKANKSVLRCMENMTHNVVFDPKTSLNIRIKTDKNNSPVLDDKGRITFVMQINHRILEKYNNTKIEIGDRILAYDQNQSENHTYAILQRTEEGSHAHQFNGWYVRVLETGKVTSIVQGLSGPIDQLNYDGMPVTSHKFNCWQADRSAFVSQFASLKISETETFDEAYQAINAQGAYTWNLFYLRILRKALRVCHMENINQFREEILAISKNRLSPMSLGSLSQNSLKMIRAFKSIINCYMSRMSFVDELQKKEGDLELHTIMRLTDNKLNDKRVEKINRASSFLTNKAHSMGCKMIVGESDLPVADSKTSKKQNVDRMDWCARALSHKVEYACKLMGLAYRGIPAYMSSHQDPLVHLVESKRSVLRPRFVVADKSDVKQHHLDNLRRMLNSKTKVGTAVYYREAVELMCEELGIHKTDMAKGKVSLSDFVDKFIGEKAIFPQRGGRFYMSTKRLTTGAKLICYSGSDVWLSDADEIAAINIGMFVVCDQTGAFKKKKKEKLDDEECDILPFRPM
Described as above. As to the method: as §1, §2

B1: VEGFA_T2 crRNA ; VEGFA_T2 target (ssRNA ; dsDNA)
RNA: AUAGUGUGUCCUUAGUUGACAUAAUCCUCCACCAGUCAUGGU
DNA 1: AATCCTCCACCAGTCATGGT
DNA 2: ACCATGACTGGTGGAGGATT
On to B1, for which the figures for the binding signal in data set [1] and in data set [2] were 1.1 fold of wild-type and 1.17 fold of wild-type, respectively.

B2: EMX1_T5 crRNA ; EMX1_T5 target (ssRNA ; dsDNA)
RNA: AUAGUGUGUCCUUAGUUGACAUUAUUAUUCCCAUAGGGAAGG
DNA 1: TATTATTCCCATAGGGAAGG
DNA 2: CCTTCCCTATGGGAATAATA
With B2, the results for the binding signal in data set [1] and in data set [2] were 0.72 fold of wild-type and 0.95 fold of wild-type, respectively.

B3: AAVS1_T3 crRNA ; AAVS1_T3 target (ssRNA ; dsDNA)
RNA: AUAGUGUGUCCUUAGUUGACAUGUGAGAAUGGUGCGUCCUAG
DNA 1: GTGAGAATGGTGCGTCCTAG
DNA 2: CTAGGACGCACCATTCTCAC
Take B3: the figures for the binding signal in data set [1] and in data set [2] were 0.8 fold of wild-type and 1.28 fold of wild-type, respectively.

Values taken from patent publication US20240352434, “COMPOSITIONS COMPRISING A VARIANT CAS12I3 POLYPEPTIDE AND USES THEREOF” (Arbor Biotechnologies, Inc., published 2024).
